IntAct's records for PubMed 31046837

Biological target: at2a2_mouse Atp2a2 (UniProt O55143)
Sequence (O55143 whole entry): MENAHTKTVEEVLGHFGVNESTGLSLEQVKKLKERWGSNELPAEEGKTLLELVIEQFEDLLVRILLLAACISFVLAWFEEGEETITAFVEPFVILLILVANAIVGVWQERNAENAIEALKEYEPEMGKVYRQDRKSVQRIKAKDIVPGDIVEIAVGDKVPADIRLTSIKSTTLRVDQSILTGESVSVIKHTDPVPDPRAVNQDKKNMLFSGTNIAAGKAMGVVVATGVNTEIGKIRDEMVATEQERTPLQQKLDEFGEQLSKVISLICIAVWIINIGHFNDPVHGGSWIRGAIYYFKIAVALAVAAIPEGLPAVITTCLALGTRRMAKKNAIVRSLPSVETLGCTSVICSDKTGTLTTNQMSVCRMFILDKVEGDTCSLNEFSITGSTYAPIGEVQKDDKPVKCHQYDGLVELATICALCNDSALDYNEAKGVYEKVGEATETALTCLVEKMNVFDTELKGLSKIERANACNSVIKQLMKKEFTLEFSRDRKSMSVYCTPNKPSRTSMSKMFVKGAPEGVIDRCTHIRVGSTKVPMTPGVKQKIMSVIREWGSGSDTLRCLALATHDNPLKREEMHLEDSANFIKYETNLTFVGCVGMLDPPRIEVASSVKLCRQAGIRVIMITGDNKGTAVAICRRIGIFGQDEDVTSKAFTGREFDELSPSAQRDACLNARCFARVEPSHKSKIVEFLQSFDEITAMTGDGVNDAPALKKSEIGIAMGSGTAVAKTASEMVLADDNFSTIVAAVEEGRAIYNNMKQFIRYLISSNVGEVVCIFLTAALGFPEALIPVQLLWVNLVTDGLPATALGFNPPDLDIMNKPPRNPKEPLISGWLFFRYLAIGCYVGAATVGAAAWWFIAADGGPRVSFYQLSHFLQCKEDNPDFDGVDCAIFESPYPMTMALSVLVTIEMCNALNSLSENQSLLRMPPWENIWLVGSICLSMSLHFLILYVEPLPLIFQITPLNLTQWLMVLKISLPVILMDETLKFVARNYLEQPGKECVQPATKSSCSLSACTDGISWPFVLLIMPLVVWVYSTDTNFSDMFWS

effect of a mutation on the interaction: increasing interaction strength
Substance: Leucine-rich repeat serine/threonine-protein kinase 2 (Homo sapiens), Q5S007 G2019S
